Test results reported in paper PMC3949714 (PLoS ONE, 2014).

Key:
[1] = biological target: T1, mu-opioid receptors (MOR) (Mus musculus, UniProt P42866); test: cell-based; type: cell-based, murine; conditions: Table 2 as titled; 20000 cells/well, FSK 100 µM, 0.3 nM to 1 µM in half log intervals, 30 min, Alphascreen; one-site fit, at least three independent experiments; read-out: IC50 for the inhibition of forskolin induced cAMP in HEK-MOP cells
T1 construct: FLAG; expressed in transfected cells

[2] = RP-HPLC retention time (read by the paper as polarity); type: physicochemical; conditions: water/acetonitrile gradient with 0.1% formic acid, MS TIC detection
Protocol: An Agilent binary HPLC composing of an Agilent 1100 LC pump, an Agilent 1100 well plate auto-sampler (Agilent Technologies, Santa Clara, CA, USA) and a Jupiter 5 μ (C4, 300 A, 150×2.00 mm, 5 μ) RP HPLC column (Phenomenex, Torrance, CA, USA) were used for separation. The mobile phase flow rate was 200 µl/min and the volume of injection was 20 µL. The separations were performed using a binary solvent gradient; water (Milli-Q; Millipore Corporation, Bedford, MA) which contained 0.1% v/v formic acid was used as the solvent A and acetonitrile (Merck KGaA, Darmstadt, Germany) which contained 0.1% v/v formic acid (Nuplex industries Pty Ltd. (NSW, Australia) was used as the solvent B. The chromatographic separation was achieved using the gradient shown in Table 1.
An API 3000 tandem mass spectrometer equipped with a turbo ion spray was used as the detector. Detection was performed in total ion current (TIC) mode (MS1/Q1), in positive mode, within the range 200–3000 amu. The data were acquired and processed by Analyst 1.5 software (Applied Biosystems, Foster city, CA, USA). Mass spectra were obtained using: declustering potential (DF) of 16 V, focusing potential (FP) of 120 V, Entrance potential (EP) of 10 V, and Ion spray voltage (IS) of 5000 V. Structure identity of fragments was performed using the respective mass/charge (m/z) values of each peptide metabolite. Direct flow injections were carried out using Model 11 plus Harvard Syringe pump (Harvard Apparatus Inc, Holliston, MA, USA).

[3] = Biotransformation in homogenised inflamed tissue at pH 5.5 (LC/MS, mean residence time); conditions: for MRT: MES pH 5.5, 37°C, 120 min, AUMC/AUC of LC/MS peak intensity
[4] = incubation of BE 1-13, Jupiter C4 column
[5] = incubation of BE 1-13 (115 µM) in rat inflamed tissue homogenate
[6] = incubation of BE 1-17, Jupiter C4 column
[7] = incubation of BE 1-31, Jupiter C4 300 A column, 200 µl/min
[8] = incubation of BE 1-17 (115 µM) in rat inflamed tissue homogenate
[9] = incubation of BE 1-31 (115 µM) in rat inflamed tissue homogenate
[10] = incubation of BE 1-11, Jupiter C4 column
[11] = incubation of BE 1-11 (115 µM) in rat inflamed tissue homogenate

T1 sequence (P42866 whole entry): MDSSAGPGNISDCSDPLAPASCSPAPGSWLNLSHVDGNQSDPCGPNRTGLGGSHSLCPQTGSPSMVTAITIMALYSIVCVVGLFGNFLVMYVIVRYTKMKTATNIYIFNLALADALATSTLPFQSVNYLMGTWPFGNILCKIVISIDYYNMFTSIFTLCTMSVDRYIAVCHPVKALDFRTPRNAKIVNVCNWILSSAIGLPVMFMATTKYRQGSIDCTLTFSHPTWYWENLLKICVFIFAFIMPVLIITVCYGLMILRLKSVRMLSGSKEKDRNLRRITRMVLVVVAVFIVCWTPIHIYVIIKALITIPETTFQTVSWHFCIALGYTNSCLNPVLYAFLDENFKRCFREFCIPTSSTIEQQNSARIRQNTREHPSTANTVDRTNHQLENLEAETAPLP

Compound	RT [2, 6]	RT [2, 7]	MRT [3, 9]	other results
C=CCN1C[C@H](C)N([C@H](c2ccc(C(=O)N(CC)CC)cc2)c2cccc(OC)c2)C[C@H]1C [SNC 80, 4-[(R)-[(2S,5R)-4-allyl-2,5-dimethylpiperazin-1-yl](3-methoxyphenyl)methyl]-N,N-diethylbenzamide, reference compound]				IC50 [1]: 8.1 nM
BE 2-12: beta-endorphin fragment, residues 2-12 (GGFMTSEKSQT; Beta-endorphin; UniProt P01189 238-248, looked up, fragment)				Rt [2, 4]: 16.2 min; MRT [3, 5]: 18.1
BE 2-13: des-tyrosine beta-endorphin fragment, residues 2-13 (GGFMTSEKSQTP; Beta-endorphin; UniProt P01189 238-249, looked up, fragment)	17.08 min	19.96 min	65	Rt [2, 4]: 17.2 min; MRT [3, 5]: 16.4; MRT [3, 8]: 25.5
BE 2-14: beta-endorphin fragment, residues 2-14 (GGFMTSEKSQTPL; Beta-endorphin; UniProt P01189 238-250, looked up, fragment)	20.1 min	22.2 min	25.1	MRT [3, 8]: 18.9
BE 2-16: des-tyrosine beta-endorphin fragment, residues 2-16 (GGFMTSEKSQTPLVT; Beta-endorphin; UniProt P01189 238-252, looked up, fragment)	20.43 min			MRT [3, 8]: 15.1
BE 2-17: des-tyrosine beta-endorphin fragment, residues 2-17 (GGFMTSEKSQTPLVTL; Beta-endorphin; UniProt P01189 238-253, looked up, fragment)	24 min			MRT [3, 8]: 7.45
BE 3-11: beta-endorphin fragment, residues 3-11 (GFMTSEKSQ; Beta-endorphin; UniProt P01189 239-247, looked up, fragment)	21.48 min			Rt [2, 10]: 15.4 min; MRT [3, 11]: 14
BE 3-13: beta-endorphin fragment, residues 3-13 (GFMTSEKSQTP; Beta-endorphin; UniProt P01189 239-249, looked up, fragment)				Rt [2, 4]: 17.2 min; MRT [3, 5]: 16.1
BE 3-16: beta-endorphin fragment, residues 3-16 (GFMTSEKSQTPLVT; Beta-endorphin; UniProt P01189 239-252, looked up, fragment)	20.43 min			MRT [3, 8]: 11
BE 3-17: beta-endorphin fragment, residues 3-17 (GFMTSEKSQTPLVTL; Beta-endorphin; UniProt P01189 239-253, looked up, fragment)	24 min			MRT [3, 8]: 6.2
BE 4-11: beta-endorphin fragment, residues 4-11 (FMTSEKSQ; Beta-endorphin; UniProt P01189 240-247, looked up, fragment)				Rt [2, 10]: 13.8 min; MRT [3, 11]: 22.7
BE 4-13: beta-endorphin fragment, residues 4-13 (FMTSEKSQTP; Beta-endorphin; UniProt P01189 240-249, looked up, fragment)	15.67 min			Rt [2, 4]: 15.7 min; MRT [3, 5]: 18
BE 5-16: beta-endorphin fragment, residues 5-16 (MTSEKSQTPLVT; Beta-endorphin; UniProt P01189 241-252, looked up, fragment)	16.92 min			MRT [3, 8]: 13.2
BE 5-24: beta-endorphin fragment, residues 5-24 (MTSEKSQTPLVTLFKNAIIK; Beta-endorphin; UniProt P01189 241-260, looked up, fragment)		19 min	25.1	
BE 6-16: beta-endorphin fragment, residues 6-16 (TSEKSQTPLVT; Beta-endorphin; UniProt P01189 242-252, looked up, fragment)	16 min	18.4 min	22.4	
BE 6-31: beta-endorphin fragment, residues 6-31 (TSEKSQTPLVTLFKNAIIKNAYKKGE; Beta-endorphin; UniProt P01189 242-267, looked up, fragment)		24.7 min	40	
BE 10-16: beta-endorphin intermediate fragment, residues 10-16 (SQTPLVT; Beta-endorphin; UniProt P01189 246-252, looked up, fragment)		19 min	44.3	Time observed as metabolite in homogenised inflamed tissue ([3]; formed during incubation of BE 1–31, pH 5.5, 37°C): over 60 minutes
BE 10-18: beta-endorphin fragment, residues 10-18 (SQTPLVTLF; Beta-endorphin; UniProt P01189 246-254, looked up, fragment)		28.2 min	13.3	
BE 10-24: beta-endorphin fragment, residues 10-24 (SQTPLVTLFKNAIIK; Beta-endorphin; UniProt P01189 246-260, looked up, fragment)		28.2 min	11.3	
BE 10-28: beta-endorphin fragment, residues 10-28 (SQTPLVTLFKNAIIKNAYK; Beta-endorphin; UniProt P01189 246-264, looked up, fragment)		26.9 min	32.3	
BE 10-31: beta-endorphin fragment, residues 10-31 (SQTPLVTLFKNAIIKNAYKKGE; Beta-endorphin; UniProt P01189 246-267, looked up, fragment)		24.9 min	29	
BE 15-24: beta-endorphin fragment, residues 15-24 (VTLFKNAIIK; Beta-endorphin; UniProt P01189 251-260, looked up, fragment)		22.44 min	25.2	
BE 18-31: beta-endorphin fragment, residues 18-31 (FKNAIIKNAYKKGE; Beta-endorphin; UniProt P01189 254-267, looked up, fragment)		16.1 min	18.1	
BE 19-30: beta-endorphin fragment, residues 19-30 (KNAIIKNAYKKG; Beta-endorphin; UniProt P01189 255-266, looked up, fragment)		14.3 min	72.2	
BE 19-31: beta-endorphin C-terminal fragment, residues 19-31 (KNAIIKNAYKKGE; Beta-endorphin; UniProt P01189 255-267, looked up, fragment)		13.67 min	80	
BE 20-24: beta-endorphin intermediate fragment, residues 20-24 (NAIIK; Beta-endorphin; UniProt P01189 256-260, looked up, fragment)		16.1 min	98	
BE 20-27: beta-endorphin intermediate fragment, residues 20-27 (NAIIKNAY; Beta-endorphin; UniProt P01189 256-263, looked up, fragment)		16.1 min	97.1	
BE 20-28: beta-endorphin intermediate fragment, residues 20-28 (NAIIKNAYK; Beta-endorphin; UniProt P01189 256-264, looked up, fragment)		16.1 min	87.6	
BE 20-29: beta-endorphin fragment, residues 20-29 (NAIIKNAYKK; Beta-endorphin; UniProt P01189 256-265, looked up, fragment)		14.3 min	8.4	
BE 20-31: beta-endorphin C-terminal fragment, residues 20-31 (NAIIKNAYKKGE; Beta-endorphin; UniProt P01189 256-267, looked up, fragment)		14.3 min	72.2	
